Results from article PMC8545396.
Where “and” joins values, the source holds several entries; their conditions need not be identical. Equal values may be shown once. Read-outs that look alike come from different tables or passages of the source.

What was measured:
[1] = molecular target: M2-mCherry2 (mCherry2 fused to the extracellular terminus of matrix protein 2 from influenza A/chicken/FPV/Rostock/1934) (influenza A/chicken/FPV/Rostock/1934)
[2] = molecular target: M2-mCherry2 (mCherry2 fused to the extracellular terminus of matrix protein 2 from influenza A/chicken/FPV/Rostock/1934) (influenza A/chicken/FPV/Rostock/1934); remark: listed apart in the source
[3] = molecular target: PA-mEYFP (IAV polymerase acidic protein, influenza A/human/WSN/1933) (influenza A/human/WSN/1933) (UniProt P15659)
[4] = molecular target: PB2-mCherry2 (IAV polymerase basic protein 2, influenza A/human/WSN/1933) (influenza A/human/WSN/1933)
[5] = molecular target: PB1-mEGFP (IAV polymerase basic protein 1, influenza A/human/WSN/1933) (influenza A/human/WSN/1933)
[6] = molecular target: PA-mEYFP (IAV polymerase acidic protein, influenza A/human/WSN/1933) (influenza A/human/WSN/1933) (UniProt P15659); remark: listed apart in the source
[7] = molecular target: PB2-mCherry2 (IAV polymerase basic protein 2, influenza A/human/WSN/1933) (influenza A/human/WSN/1933); remark: listed apart in the source

Substance: LC3-mEYFP (from UniProt Q62625 1-120) (natural protein)
- relative cross-correlation (rel.cc.) [1]: 0.52
- stoichiometry N [2]: 0.5 LC3:M2 and 0.25 LC3:M2

Substance: M2-mCherry2 (mCherry2 fused to the extracellular terminus of matrix protein 2 from influenza A/chicken/FPV/Rostock/1934) (natural protein)
- normalized molecular brightness [1]: 2.24
- stoichiometry N [1]: 3.1

Substance: PA-mEYFP (IAV polymerase acidic protein, influenza A/human/WSN/1933) (from UniProt P15659 1-716) (natural protein)
- stoichiometry N [3]: 1.8
- relative cross-correlation (rel.cc.) [4]: 0.39

Substance: PB1-mEGFP (IAV polymerase basic protein 1, influenza A/human/WSN/1933) (natural protein)
- stoichiometry N [5]: 2.1
- relative cross-correlation (rel.cc.) [6]: 0.93
- relative cross-correlation (rel.cc.) [4]: 0.47

Substance: PB2-mCherry2 (IAV polymerase basic protein 2, influenza A/human/WSN/1933) (natural protein)
- stoichiometry N [7]: 2.2
